Assay results: patent US20250186597A1, “TARGETED IMMUNE ACTIVATION WITH IL-18 IMMUNOCYTOKINES” (BRIGHT PEAK THERAPEUTICS AG, priority 2023, published 2025)

How the values were obtained:
Test in all cases: cell-based or functional assay
[1] = biological target: IL-18 polypeptide of SEQ ID NO: 5 (E6K, V11I, C38A, K53A, T63A, C68A, C76A, M86C, C127A) (human) (UniProt Q14116)
[2] = biological target: IL-18 polypeptide C163 (V11I, C38A, C76A, Q103K, C127A) (human) (UniProt Q14116)
[3] = biological target: IL-18 polypeptide C144 (V11I, C38A, K53A, T63A, C76A, C127A) (human) (UniProt Q14116)
[4] = biological target: IL-18 polypeptide C157 (V11I, C38A, K53A, C76A, C127A, D132A) (human) (UniProt Q14116)
[5] = biological target: IL-18 polypeptide of SEQ ID NO: 39 (E06K, K53A) (human) (UniProt Q14116)
[6] = biological target: IL-18 polypeptide of SEQ ID NO: 36 (K53A) (human) (UniProt Q14116)
[7] = biological target: IL-18 polypeptide of SEQ ID NO: 34 (E06K, K53A, S55A) (human) (UniProt Q14116)
[8] = biological target: IL-18 polypeptide C165 (V11I, C38A, S55R, C76A, C127A) (human) (UniProt Q14116)
[9] = biological target: IL-18 polypeptide of SEQ ID NO: 47 (C38S, C68S, C76S, C127S) (human) (UniProt Q14116)
[10] = biological target: IL-18 polypeptide of SEQ ID NO: 51 (T63A) (human) (UniProt Q14116)
[11] = biological target: IL-18 polypeptide C160 (V11I, C38A, K53A, C76A, D110A, C127A) (human) (UniProt Q14116)
[12] = biological target: IL-18 polypeptide of SEQ ID NO: 46 (E06K, K53A, S55A, M51G) (human) (UniProt Q14116)
[13] = biological target: IL-18 polypeptide C146 (SEQ ID NO: 68; V11I, C38A, M51G, K53A, C76A, C127A) (human) (UniProt Q14116)
[14] = biological target: IL-18 polypeptide of SEQ ID NO: 50 (E06K, K53A, T63A) (human) (UniProt Q14116)
[15] = biological target: IL-18 polypeptide C145 (V11I, C38A, K53A, S55A, C76A, C127A) (human) (UniProt Q14116)
[16] = biological target: IL-18 polypeptide of SEQ ID NO: 48 (C38S, C68S, C76S, C127S, K70C) (human) (UniProt Q14116)
[17] = biological target: IL-18 polypeptide of SEQ ID NO: 55 (K53A, T63A, C38S, C68S, C76S, C127S, K70C) (human) (UniProt Q14116)
[18] = biological target: IL-18 polypeptide C153 (V11I, D37A, C38A, K53A, C76A, C127A) (human) (UniProt Q14116)
[19] = biological target: IL-18 polypeptide of SEQ ID NO: 62 (E6K, C38A, K53A, C127A) (human) (UniProt Q14116)
[20] = biological target: IL-18 polypeptide C147 (V11I, C38A, K53A, D54A, C76A, C127A) (human) (UniProt Q14116)
[21] = biological target: IL-18 polypeptide of SEQ ID NO: 4 (E6K, C38A, K53A, C68A, M86C) (human) (UniProt Q14116)
[22] = biological target: IL-18 polypeptide C166 (V11I, C38A, S55T, C76A, C127A) (human) (UniProt Q14116)
IL-18 polypeptide C166 (V11I, C38A, S55T, C76A, C127A) (human), sequence (Q14116 37-193 V47I/C74A/S91T/C112A/C163A): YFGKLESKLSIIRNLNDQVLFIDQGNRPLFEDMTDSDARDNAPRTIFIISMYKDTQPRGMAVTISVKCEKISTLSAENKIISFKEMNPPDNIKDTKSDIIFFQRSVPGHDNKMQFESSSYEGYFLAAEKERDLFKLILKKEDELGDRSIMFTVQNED

IL-18 polypeptide of SEQ ID NO: 4 (E6K, C38A, K53A, C68A, M86C) (human), sequence (Q14116 other isoform, or with tags, fused parts or gaps C38A K53A C68A M86C C38A K53A C68A M86C): as the sequence (Q14116 37-193 V47I/C74A/S91T/C112A/C163A) above, with E6K, I11V, K53A, T55S, C68A, A76C, M86C, A127C counted along it
IL-18 polypeptide of SEQ ID NO: 34 (E06K, K53A, S55A) (human), sequence (Q14116 37-193 E42K/K89A/S91A): as the sequence (Q14116 37-193 V47I/C74A/S91T/C112A/C163A) above, with E6K, I11V, A38C, K53A, T55A, A76C, A127C counted along it
IL-18 polypeptide of SEQ ID NO: 62 (E6K, C38A, K53A, C127A) (human), sequence (Q14116 other isoform, or with tags, fused parts or gaps C38A K53A C127A C38A K53A C127A): as the sequence (Q14116 37-193 V47I/C74A/S91T/C112A/C163A) above, with E6K, I11V, K53A, T55S, A76C counted along it
IL-18 polypeptide C153 (V11I, D37A, C38A, K53A, C76A, C127A) (human), sequence (Q14116 37-193 V47I/D73A/C74A/K89A/C112A/C163A): as the sequence (Q14116 37-193 V47I/C74A/S91T/C112A/C163A) above, with D37A, K53A, T55S counted along it
IL-18 polypeptide C144 (V11I, C38A, K53A, T63A, C76A, C127A) (human), sequence (Q14116 37-193 V47I/C74A/K89A/T99A/C112A/C163A): as the sequence (Q14116 37-193 V47I/C74A/S91T/C112A/C163A) above, with K53A, T55S, T63A counted along it
IL-18 polypeptide of SEQ ID NO: 51 (T63A) (human), sequence (Q14116 37-193 T99A): as the sequence (Q14116 37-193 V47I/C74A/S91T/C112A/C163A) above, with I11V, A38C, T55S, T63A, A76C, A127C counted along it
IL-18 polypeptide C145 (V11I, C38A, K53A, S55A, C76A, C127A) (human), sequence (Q14116 37-193 V47I/C74A/K89A/S91A/C112A/C163A): as the sequence (Q14116 37-193 V47I/C74A/S91T/C112A/C163A) above, with K53A, T55A counted along it
IL-18 polypeptide of SEQ ID NO: 50 (E06K, K53A, T63A) (human), sequence (Q14116 37-193 E42K/K89A/T99A): as the sequence (Q14116 37-193 V47I/C74A/S91T/C112A/C163A) above, with E6K, I11V, A38C, K53A, T55S, T63A, A76C, A127C counted along it
IL-18 polypeptide C146 (SEQ ID NO: 68; V11I, C38A, M51G, K53A, C76A, C127A) (human), sequence (Q14116 37-193 V47I/C74A/M87G/K89A/C112A/C163A): as the sequence (Q14116 37-193 V47I/C74A/S91T/C112A/C163A) above, with M51G, K53A, T55S counted along it
IL-18 polypeptide C147 (V11I, C38A, K53A, D54A, C76A, C127A) (human), sequence (Q14116 37-193 V47I/C74A/K89A/D90A/C112A/C163A): as the sequence (Q14116 37-193 V47I/C74A/S91T/C112A/C163A) above, with K53A, D54A, T55S counted along it
IL-18 polypeptide C165 (V11I, C38A, S55R, C76A, C127A) (human), sequence (Q14116 37-193 V47I/C74A/S91R/C112A/C163A): as the sequence (Q14116 37-193 V47I/C74A/S91T/C112A/C163A) above, with T55R counted along it
IL-18 polypeptide C163 (V11I, C38A, C76A, Q103K, C127A) (human), sequence (Q14116 37-193 V47I/C74A/C112A/Q139K/C163A): as the sequence (Q14116 37-193 V47I/C74A/S91T/C112A/C163A) above, with T55S, Q103K counted along it
IL-18 polypeptide of SEQ ID NO: 46 (E06K, K53A, S55A, M51G) (human), sequence (Q14116 37-193 E42K/M87G/K89A/S91A): as the sequence (Q14116 37-193 V47I/C74A/S91T/C112A/C163A) above, with E6K, I11V, A38C, M51G, K53A, T55A, A76C, A127C counted along it
IL-18 polypeptide C157 (V11I, C38A, K53A, C76A, C127A, D132A) (human), sequence (Q14116 37-193 V47I/C74A/K89A/C112A/C163A/D168A): as the sequence (Q14116 37-193 V47I/C74A/S91T/C112A/C163A) above, with K53A, T55S, D132A counted along it
IL-18 polypeptide of SEQ ID NO: 55 (K53A, T63A, C38S, C68S, C76S, C127S, K70C) (human), sequence (Q14116 37-193 C74S/K89A/T99A/C104S/K106C/C112S/C163S): as the sequence (Q14116 37-193 V47I/C74A/S91T/C112A/C163A) above, with I11V, A38S, K53A, T55S, T63A, C68S, K70C, A76S, A127S counted along it
IL-18 polypeptide C160 (V11I, C38A, K53A, C76A, D110A, C127A) (human), sequence (Q14116 37-193 V47I/C74A/K89A/C112A/D146A/C163A): as the sequence (Q14116 37-193 V47I/C74A/S91T/C112A/C163A) above, with K53A, T55S, D110A counted along it
IL-18 polypeptide of SEQ ID NO: 39 (E06K, K53A) (human), sequence (Q14116 37-193 E42K/K89A): as the sequence (Q14116 37-193 V47I/C74A/S91T/C112A/C163A) above, with E6K, I11V, A38C, K53A, T55S, A76C, A127C counted along it
IL-18 polypeptide of SEQ ID NO: 47 (C38S, C68S, C76S, C127S) (human), sequence (Q14116 37-193 C74S/C104S/C112S/C163S): as the sequence (Q14116 37-193 V47I/C74A/S91T/C112A/C163A) above, with I11V, A38S, T55S, C68S, A76S, A127S counted along it
IL-18 polypeptide of SEQ ID NO: 48 (C38S, C68S, C76S, C127S, K70C) (human), sequence (Q14116 37-193 C74S/C104S/K106C/C112S/C163S): as the sequence (Q14116 37-193 V47I/C74A/S91T/C112A/C163A) above, with I11V, A38S, T55S, C68S, K70C, A76S, A127S counted along it
IL-18 polypeptide of SEQ ID NO: 5 (E6K, V11I, C38A, K53A, T63A, C68A, C76A, M86C, C127A) (human), sequence (Q14116 other isoform, or with tags, fused parts or gaps with the stated changes): as the sequence (Q14116 37-193 V47I/C74A/S91T/C112A/C163A) above, with E6K, K53A, T55S, T63A, C68A, M86C counted along it
IL-18 polypeptide of SEQ ID NO: 36 (K53A) (human), sequence (Q14116 37-193 K89A): as the sequence (Q14116 37-193 V47I/C74A/S91T/C112A/C163A) above, with I11V, A38C, K53A, T55S, A76C, A127C counted along it

IC50 of inhibition by IL-18BP of IFNγ stimulation in NK92 cells [1]: 62.4 nM
IC50 of inhibition by IL-18BP of IFNγ stimulation in NK92 cells [2]: 0.823 nM
IC50 of inhibition by IL-18BP of IFNγ stimulation in NK92 cells [3]: 7.52 nM
IC50 of inhibition by IL-18BP of IFNγ stimulation in NK92 cells [4]: 6.08 nM
IC50 of inhibition by IL-18BP of IFNγ stimulation in NK92 cells [5]: > 703 nM
IC50 of inhibition by IL-18BP of IFNγ stimulation in NK92 cells [6]: 27.3 nM
IC50 of inhibition by IL-18BP of IFNγ stimulation in NK92 cells [7]: 229 nM
IC50 of inhibition by IL-18BP of IFNγ stimulation in NK92 cells [8]: 0.885 nM
IC50 of inhibition by IL-18BP of IFNγ stimulation in NK92 cells [9]: 0.444 nM
IC50 of inhibition by IL-18BP of IFNγ stimulation in NK92 cells [10]: 0.239 nM
IC50 of inhibition by IL-18BP of IFNγ stimulation in NK92 cells [11]: 3.18 nM
IC50 of inhibition by IL-18BP of IFNγ stimulation in NK92 cells [12]: 0.189 nM
IC50 of inhibition by IL-18BP of IFNγ stimulation in NK92 cells [13]: 733 nM
IC50 of inhibition by IL-18BP of IFNγ stimulation in NK92 cells [14]: > 1000 nM
IC50 of inhibition by IL-18BP of IFNγ stimulation in NK92 cells [15]: 10.2 nM
IC50 of inhibition by IL-18BP of IFNγ stimulation in NK92 cells [16]: 0.114 nM
IC50 of inhibition by IL-18BP of IFNγ stimulation in NK92 cells [17]: > 1000 nM
IC50 of inhibition by IL-18BP of IFNγ stimulation in NK92 cells [18]: 2.22 nM
IC50 of inhibition by IL-18BP of IFNγ stimulation in NK92 cells [19]: 284 nM
IC50 of inhibition by IL-18BP of IFNγ stimulation in NK92 cells [20]: 47.6 nM
IC50 of inhibition by IL-18BP of IFNγ stimulation in NK92 cells [21]: 396 nM
IC50 of inhibition by IL-18BP of IFNγ stimulation in NK92 cells [22]: 0.44 nM
Substance: Fc fused human IL-18 binding protein isoform a (IL-18BPa; R&D systems, Cat #119-BP) (from UniProt O95998 31-194) (Fc fusion)
